The nanobody polyreactivity screen of Harvey et al. (2022)

Assay: yeast display, Sf9 membrane polyspecificity reagent, FACS + sequencing; frameworks hold sequencing errors
Outline: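 Genes from sorted yeast were amplified by colony PCR, read by MiSeq 2 × 250 sequencing and filtered on CDR length. These cells carried a synthetic nanobody library in Saccharomyces cerevisiae BJ5465 and were sorted by FACS into low and high (top ~1%) gates on anti-HA and streptavidin fluorescence. Polyreactivity is labelled according to the gate of origin.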

Row | Sequence | polyreactivity (PSR sort gate)
1 | QVQLVESGGGLVQAGGSLRLSCAASGSTFWFYAMGWYRQSPGKERELVAVISNSGSTYYADSVKGRFTISRDNAKNTVYLQMNSLKPEDTAVYYCNKDGGGDSYWYDYWGQGTQVTVSS | low polyreactivity
2 | QVQLVESGGGLVQAGGSLRLSCAASGSTFYAYAMGWYRQAPGKGGELVAAIDSGGSTYYADSVKGRFTISRDNAKNTVYLQMNSLKPEDTAVYYCAVRHRYTRAYWGRDYWGQGTQVTVSS | low polyreactivity
3 | QVQLVESGGGLVQAGGSLRLSFAASGSTFGVNAMGWYRQAPGKERELVAVITRSGGSTYYADSVKGRFTISRDNAKNTVYLQMNSLKPEDTAVYYCGKSGVVDWGQGTQVTVSS | low polyreactivity
4 | QVQLVESGGGLVQAGGSLRLSCAASGRTFYRSALVWYRQAPGKERELVAAISYNGGSTFYADSVKGRFTISRDNAKYTVYLQMNSLKPEDTAVYYCAAGPRGTGKYYWGQGTQVTVSS | high polyreactivity
5 | QVQLVESGGGLVQAGGSLRLSCAASGRTLNAYAMGWYRHAPGKERELVAAITWDDGSTYYAHSVKGRFTISRDNAKNTVSLQMNSLKPEDSAVYYCAAYAYNAIEYGYWGQGTQVNVSS | low polyreactivity
6 | QVQLVESGGGIVQAGGSLRLSCAASGFTFIRYAMLWYRQAPGIERELVAAITSSGGSTYSADSVKGRFTISRDNAKNTVYLQKNSLKPEDTAVYYCATVYSGPVRAIGYDYWGQGTQVTVSS | high polyreactivity
7 | QVQLVESGGGLVQAGGSLRLSCAASGRTFYWYAMGWYRQAPGKERELVAAIRRSGGRTYYADSVKGRFTISRDNAKNTVYLQMNSLKPEDTAVYYCNVAYLRYPGPLDYWGQGTQVTVSS | high polyreactivity
8 | QVQLVESGRGLVQAGGSLRLSCAASGFIFAKYDMGCYSKAPVKERELVAAITRSGARTYYADSVKGRFTISRDNAKTTVYLQMNSLKPEDTAVYYCAIVTTVYTYDYWGQGTQVTVSS | high polyreactivity
9 | QVQLVESGGGLVQAGGSLRLSCAASGSTFAPNAMGWYRQAPGKEREFVASITWRGGSTYYADSVKGRFTISRDNAKNTVYLQMNSLKPEDTAVYYCANLKRGFYRLFGFRYDYWGQGTQVTVSS | low polyreactivity
10 | QVQLVESGGGLVQAGGSLRLSCAASGGIFWYYTRVWYRQAPGKERELVATISSGGRTYYADSVKGRFTISRDNAKNTVYLQMNSLKPEHTAVYYCAAVGWYHDYYWGQGTQVTVSS | high polyreactivity
11 | QVQLVESGGGLVQAGGSLRLRCAASGSIFRYNPMGWYRQAPGKERELVAPISWSGGHTYYADSVKGRFTISRDNAKNTDYLQLNSLKPEDTAVYYWATVPRKTPGNAELDYWGQGTQVTVSS | high polyreactivity
12 | QVHHVESGGGLVQAGGSLRLSCADSGSIFTYYAMGWYRQAPGKERDLVAAINSGGRTNYADSVKGRFTISRDNAKNTVYLQMNSLKPVDTAVYYCANYGVLQYGYWGQGTQVTVSS | low polyreactivity
13 | QVQLVESGGGLVQAGGSLRLSCAASGITISVNDMGWYRQAPGKERELVAAISSGDSTNYADSVKGRFTISRDNAKNTVYLQMNSLKPEDTAVSYCAALEGSLTGWQTYDYWGQGTQVTVSS | low polyreactivity
14 | QVQLVESGGGLVQAGGSLRLSCAASGSTFTSYAMGWYRQAPGKEREFVAAISQSSGSTYYADSVKWSFTISRDNAKNTVYLQMNSLKPEDTAVYYCAAKGRIRYGYGFDYWGQGTQVTVSS | high polyreactivity
15 | QVQLVESGGALVQAGGSLRLSCAASGRTINYYAMGWYRQAPGKERELVAAITWSGSSTYYADSVKGRFTISRDNAKYTVYLQMNSLKPEDTAVYYCNKASYTGYRSKRFYYWGQGTQVTVSS | high polyreactivity
16 | QVQLVESGGGLVQAGGSLRLSCAASGGIFPDYAMGSYRQAPGKERELVAVISDSGGSTYYADSVKGRFTISRDNAKNTVYLQMNSLKPEDTAVYYCAAETEWYYGYYEYWGQGTQVTVSS | high polyreactivity
17 | QVQLVESGGGLVQAGGSLRLSCAASGSTFDTNAMGWYRQAPGKERELVAAISWSRDRTYYADSVKGRFTISRDNAKNTVYLQMNSLNPEDTAVYYCNAYLSFRRQYGYWGQGTQGTVSS | high polyreactivity
18 | QVQLVESGGGLVQAGGSLRLSCAASGLIFRGNDMGWYRQAPGKERELVAGINSSGSTNYADSVKGRFTISRDNAKNTVYLHMNSLKPEDTAVYYCAARAIVSFDYCGQGTQVTVSS | low polyreactivity
19 | QVQLVESGGGLVQAGGSLRLSCAASGSTFLVYAMGWYRQAPGKERELVAVIDNGGDTYYADSVKGRFTISRDNAKNTVYLQMNSLKPEDTEVYYCAADLSYLGYWEYDYWGQGTQVTVSS | low polyreactivity
20 | QVHLVESGGGLVQAGGSLRLSSAASGSIFQVYAMGWYRQAPGTERELVAGISRGGSTYYADSVKGRFTISRDNAKNTVYLQMNSLKPEDTAVYYCAARGGGIRAYGSNRRSFYYWGQGTQVTVSS | high polyreactivity
21 | QVQLVESGGGLVQAGGSLRLSCAASGSTLTRNTMGWYRQAPGKERELVATITRSGGSTYYADSVKGRFTISRDNAKNTVYLQMNSLKPEDTAVYYCAKRGRLRNYDYWGQGTQVTVSS | high polyreactivity
22 | QVQLVESGGGLVQAGGSLRLSCAASGSTFIVNAMGWYRQAPGKERELVAAIRRGTRTNYADSVKGRFTISRDNAKNTVYLQMNSLKPEDTAVYYCAVRGSYRGWYDYWGQGTQVTVSS | high polyreactivity

Row | Sequence | polyreactivity (PSR sort gate)
23 | QVQLVESGGGLFQAGGSHRLSCAASGSTFTPYAMGWYRQAPGKEREFVARISWTGGSTYYADSVKGRFTISRDNAKNTVYLQMNSLKPEDTAVYYCAARYGYSYYRRDYWGQGTQVTVSS | high polyreactivity
24 | QVQLVESGGGLVQAGGSLRLSCAASGIIFYYYGMGWSRQAPGKEREFVAAISTSGGNTYYADSVKGRFTISRDNAKNTVYLQMNSLKPEDTAVYYCAADDWPWGDAGVDYWGQGTQVTVSS | low polyreactivity
25 | QVQLVESGGGLVQAGGSLRLTCAASGFTIAWNAMGWYRPSPGKERELVAAISAGGGSTYYADSVKGRFTISRDNAKNTVYLQMNSLKPEDTAVYYCAARRTFKYGSYAYYYWGQGTQVTVSS | high polyreactivity
26 | QVQLVESGGGLVQAGGSLRLSCAASGTISVFYAKGWYRQAPGKEREFVAAISWRGGRTYYADSVKARFTISRDNAKNTVYLQMNSLKPEDTAVYYCAKDIVRGRSSRYDYWGQGTQVTVSS | high polyreactivity
27 | QVQLVESGGGLVQAGGSLRLSCAASGLIFATYAMGWSRQAPGKERELVAAISYRGSRTYYADSVKGRFTISRDNAMTTVYLQMNILKPEDTGVYYCAAVYRTYGIGPNNYWGQGTQVTVSS | high polyreactivity
28 | QVQLVESGGGLVQAGGSLRLSCAASGSIFTHNAMGWYRQAPGKVREFVAAISSGGSTNYADSVKGRFTISRDNAKNTVYSQMNSLKPEDTAVYYCAKSIDGWYWRRRRYDYWGQGTQVTVSS | low polyreactivity
29 | QVQLVESRGGLVQAGGSLRLSCAASGRIFVVYTMGWYRQAPGKERELVAAISWRGGTTYYADSVKRRFTISRDNAKTTVYLQMTSLIPEDTAVSYCATREWSPRGSYDYSGQGTQVTVSS | high polyreactivity
30 | QDQLVESGGGLVQAGGSLRLSCAASGFTFSAYAMGWYRQAPGKERELVAAISTRGGSTRYADSVKGRFTISRDNAKNTVYLQMNSLKPEDTAVYYCAVEVYSYLYYETYPTEYEYWGQGTQVTVSS | high polyreactivity
31 | QVQLVESGGGLVQAGGSLRLSCAASGRIITKYTMGWYRQAPGKVRELVAAISRSDRTNYADSVKGRFTISRDNAKNTVYLQMNSLKPEDTAVYYCNARHSYWTGRRVTDDYDYRGQGTQVTVSS | high polyreactivity
32 | QVQLVESGGGLVQAGGSLRLSCAASGRTFSIYAKGWYRQAPGKERELVAAISNGGRTKYADSVKGRFTISRDNAKNTVYLQMNSLKPEDTAVYYCAASSYTHKRYPSPYDYWGQGTQVTVSS | high polyreactivity
33 | QVQLVETGGGLVQAGGSLRLSCAASGSIFKNNAMGGYRQAPGKERELVAAIRSYGGSTYYADSVKGRFTISRDNAKNTVYLQMKSLKPEDTAVYYCAARYRSYPTYYQYNYWGQGTQVTVSS | high polyreactivity
34 | QVQLVESGGGLVQAGGSLRLSCAASGIILSENDMGWYRQAPGKERELVAAITSSGSTSYADSVKGRFTISRDNAKNTVYLQMNSLKPEDTAVYYCAADYLNPFPPYQYWKQSYDYWGQGTQVTVSS | low polyreactivity
35 | QVQLVESGGGLVQEGGSLRLSCAASGRTICLNDMGWYRQAPGKERELVAGITRSGGSTYYADSVKGRFTISRDNAKNTVYLQMNSLKPEDSAVYYCAADFKPLYYDEYDYWGQGTQVTVSS | low polyreactivity
36 | QVKLVESGGGLVQAGGSLRLSCAASGSTFWIYAMAWYRQAPGKERELVAAISWRGGRTYYADSVKGRFTISRDNAKNTVYLQMNSLKPEDSAVYYCYAQKRDGSMGYWGQGTQVTVSS | high polyreactivity
37 | QVQLVESRGGVVQAGGSLRLSSDDSGFTFYYYAMGWYRQAPGKERQLVAPITKSGGSTYYADSVKWRFTISRDNSKNSLYVKFNRLKPEDTAVYYCNKVTYSSDQYFGGDGYFWGQGTQVTVTS | high polyreactivity
38 | QVQLVESGGGLVQAGGSLRLSCAASGRIIVLYAMGWYRQAPGKERELVASIRSGGSTNYADSVKGRFTISRDNAKNTVYLQMNSLKPEDTAVYYCAARPDHKRYDYWGQGTQVTVSS | low polyreactivity
39 | QVQLVESGGGLVQAGGSLRLSCAASGRSLGWYAMGWYRKAPGKERELVAAISSGVRTNYADSVKGRFTISRDNAKNTVYLQMNSLKPEDTAVYYCAAATYNQDYSYDYWGQGTQVTVSS | low polyreactivity
40 | PVQLVESGGGLVQAGGSLRLSCAASGSTFYIYAMGWYRQAPGKERELVAAITSRGTITSYADSVKGRFTISRDNAKNTVYLQMNSLKPEDTAVYYCAADYWQDGIAYWYDYWGQGTQVTVSS | low polyreactivity
41 | QVQLVESCGGLVQAGGSLLLSCAASGGTFCDYAMVWYRQAPGKEREFVASITRSVSDTYYADSVKGRFTISRDNAKNTVYLQINSLKPEDTAVYYCKADRWYPWRSIMDYWGQGTQVSVSS | low polyreactivity
42 | QVQLVESGGCLVQAGCSLRLSCAASGSTLWWYDMGWYRQAPGKERELVAAINSGGSTNYADSVKGRFTISRDNAKNTVYLQMNSLKAEDTAVYYCNTDGEVTYDYWGQGTQVTVSS | low polyreactivity
43 | QVQLVESGGGLVQAGGSLRLSCAASGRILTTNAMGLYRQETGKERELVAAITRSGGRTYYADSVKGRFTISRDNAKNTVYLQMNSLKPEDTAVYYCNAVTTRLALYDYWGQGTQVTVSS | high polyreactivity
